The test deals with T1, SARS-CoV-2 S protein extracellular domain (S-ECD, 1–1208 aa) (SARS-CoV-2, Wuhan-Hu-1 (GenBank …, UniProt P0DTC2, proline substitution at residue 986 | proline substitution at residue 987 | …)).
T1 construct: also called S trimer; trimeric S protein
The experiment in a line: cryo-EM structure. The following applies: both partners purified.

Data on two molecules can be found in paper PMC7966918 (Cell Research, 2021).

B1: P2B-1A10 (full-length IgG) (antibody, V domains shown)
VH: EVQLVESGGGLIQPGGSLRLSCAASGFTVSSNYMSWVRQAPGKGLEWVSVIYSGGSTYYADSVKGRFTISRDNSKNTLYLQMNSLRAEDTAVYYCAREGPKSITGTAFDIWGQGTIVTVSS
VL: DIQMTQSPSSLSASVGDRVTITCQASQDISNYFNWYQQKPGKAPKLLIYDASNLETGVPSRFSGSGSGTDFTFTISSLQPEDIATYYCQQYDNLPMYTFGQGTKLEIK
For the molecule B1, the binding result is “binds”.

B2: P5A-2G9 (full-length IgG) (antibody, V domains shown)
VH: QVQLVESGGGVVQPGRSLRLSCAASGFTFSSYGMHWVRQAPGKGLEWVAVIWYDGSNKYYADSVKGRFTISRDNSKNTLYLQMNSLRAEDTAVYYCARWFHTGGYFDYWGQGTLVTVSS
VL: QPVLTQPPSSSASPGESARLTCTLPSDINVSSYNIYWYQQKPGSPPRYLLYYYSDSDKGQGSGVPSRFSGSKDASANTGILLISGLQSEDEADYYCMIWPSNALYVFGTGTKVTVL
On to B2, for which the binding result was “binds”.
